According to publication PMC6210734, “Unliganded Progesterone Receptor Governs Estrogen Receptor Gene Expression by Regulating DNA Methylation in Breast Cancer Cells”:

Experiments:
[1] = target: T1, Progesterone receptor isoform B (PR-B) (Homo sapiens, UniProt P06401 1-933); test: EMSA; EMSA: 20 min at room temperature, 5% acrylamide-bisacrylamide gel; buffer, salt and pH not stated; conditions: protein: recombinant; chain copies: 2; (radioactive); blunt
[2] = target: T1, Progesterone receptor isoform B (PR-B); test: competition; 100-fold unlabeled competitor vs labeled no-CpG PRE, 2.4 ug PR-B; high-affinity competitor; EMSA: 20 min at room temperature, 5% acrylamide-bisacrylamide gel; buffer, salt and pH not stated; conditions: protein: recombinant; chain copies: 2; (radioactive); blunt

T1 sequence (P06401 whole entry, canonical isoform): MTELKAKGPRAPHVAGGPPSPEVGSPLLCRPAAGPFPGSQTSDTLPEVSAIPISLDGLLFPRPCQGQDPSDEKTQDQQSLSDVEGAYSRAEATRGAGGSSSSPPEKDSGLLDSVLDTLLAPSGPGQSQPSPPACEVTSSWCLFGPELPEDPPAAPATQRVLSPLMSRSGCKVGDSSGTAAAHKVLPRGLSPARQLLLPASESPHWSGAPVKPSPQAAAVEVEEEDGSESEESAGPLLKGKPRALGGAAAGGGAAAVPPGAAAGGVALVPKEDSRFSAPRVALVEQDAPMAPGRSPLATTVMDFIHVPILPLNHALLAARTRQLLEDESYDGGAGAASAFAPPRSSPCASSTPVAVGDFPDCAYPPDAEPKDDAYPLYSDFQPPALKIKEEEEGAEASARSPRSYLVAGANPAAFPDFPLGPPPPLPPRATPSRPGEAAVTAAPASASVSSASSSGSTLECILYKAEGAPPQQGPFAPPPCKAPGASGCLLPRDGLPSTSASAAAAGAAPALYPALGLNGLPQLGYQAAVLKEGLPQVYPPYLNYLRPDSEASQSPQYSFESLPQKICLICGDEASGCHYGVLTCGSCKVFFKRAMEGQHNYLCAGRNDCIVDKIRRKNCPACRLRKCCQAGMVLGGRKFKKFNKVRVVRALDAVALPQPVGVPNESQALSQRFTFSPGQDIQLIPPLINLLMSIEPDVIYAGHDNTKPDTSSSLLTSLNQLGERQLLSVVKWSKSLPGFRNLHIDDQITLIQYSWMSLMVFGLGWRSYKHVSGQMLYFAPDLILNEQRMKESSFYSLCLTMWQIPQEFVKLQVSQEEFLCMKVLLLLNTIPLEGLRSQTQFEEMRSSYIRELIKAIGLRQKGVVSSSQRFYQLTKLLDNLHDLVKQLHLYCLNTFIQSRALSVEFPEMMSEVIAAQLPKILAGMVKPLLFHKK

Row | Binder | binding result [1] | binding result [2]
1 | PRE no CpG (dsDNA) DNA 1: GTTGAGTCAGAACAGTTTGTTCTCTAGGCAC DNA 2: GTGCCTAGAGAACAAACTGTTCTGACTCAAC | binds | 
2 | PRE two CpGs, unmethylated (dsDNA) DNA 1: GTTGAGTCAGAACGGTTCGTTCTCTAGGCAC DNA 2: GTGCCTAGAGAACGAACCGTTCTGACTCAAC |  | binds
